# Experimental data: patent US5474766, “Methods and compositions for inhibition of hepatic clearance of tissue-type plasminogen activator” (Washington University, dated 1995)
# B1: 28 kDa C-terminal fragment of the 39 kDa protein (ligand)
# chain: PRLEKLWHKAKTSGKFSGEELDKLWREFLHHKEKVHEYNVLLETLSRTEEIHENVISPSDLSDIKGSVLHSRHTELKEKLRSINQGLDRLRRVSHQGYSTEAEFEEPRVIDLWDLAQSANLTDKELEAFREELKHFEAKIEKHNHYQKQLEIAHEKLRHAESVGDGERVSRSREKHALLEGRTKELGYTVKKHLQDLSGRISRARHNEL
# B2: 20 kDa N-terminal fragment of the 39 kDa protein (ligand)
# chain: YSREKNQPKPSPKRESGEEFRMEKLNQLWEKAQRLHLPPVRLAELHADLKIQERDELAWKKLKLDGLDEDGEKEARLIRNLNVILAKYGLDGKKDARQVTSNSLSGTQEDGLDD
# B3: 39 kDa protein (ligand)
# chain: YSREKNQPKPSPKRESGEEFRMEKLNQLWEKAQRLHLPPVRLAELHADLKIQERDELAWKKLKLDGLDEDGEKEARLIRNLNVILAKYGLDGKKDARQVTSNSLSGTQEDGLDDPRLEKLWHKAKTSGKFSGEELDKLWREFLHHKEKVHEYNVLLETLSRTEEIHENVISPSDLSDIKGSVLHSRHTELKEKLRSINQGLDRLRRVSHQGYSTEAEFEEPRVIDLWDLAQSANLTDKELEAFREELKHFEAKIEKHNHYQKQLEIAHEKLRHAESVGDGERVSRSREKHALLEGRTKELGYTVKKHLQDLSGRISRARHNEL
# Columns and labels:
# [1] = biological target: low density lipoprotein receptor-related protein (LRP) on rat MH1C1 hepatoma cells (rat); assay: saturation binding to MH1C1 cells, Scatchard; summary of 7 experiments
# [2] = biological target: low density lipoprotein receptor-related protein (LRP) on rat MH1C1 hepatoma cells (rat); assay: saturation binding to MH1C1 cells, Scatchard; simultaneous assays, n=4
# [3] = biological target: low density lipoprotein receptor-related protein (LRP) on rat MH1C1 hepatoma cells (rat); assay: competition of 125I-t-PA binding to MH1C1 cells
# [4] = biological target: low density lipoprotein receptor-related protein (LRP) on rat MH1C1 hepatoma cells (rat); assay: saturation binding to MH1C1 cells pre-incubated with 0.1% saponin, Scatchard; n=3 (ligand label as printed, doubtful)
# [5] = biological target: low density lipoprotein receptor-related protein (LRP) on rat MH1C1 hepatoma cells (rat); assay: competition of 125I-t-PA binding to MH1C1 cells by recombinant rat 39 kDa protein
# [6] = biological target: low density lipoprotein receptor-related protein (LRP) on rat MH1C1 hepatoma cells (rat); assay: competition of 4 nM 125I-t-PA binding to MH1C1 cells, fragment eluted from PVDF
# [7] = biological target: low density lipoprotein receptor-related protein (LRP) on rat MH1C1 hepatoma cells (rat); assay: competition of 4 nM 125I-t-PA binding to MH1C1 cells; buffer alone exhibited 20-30% inhibition
# [8] = biological target: low density lipoprotein receptor-related protein (LRP) on rat MH1C1 hepatoma cells (rat); assay: competition of 3 nM 125I-t-PA binding to MH1C1 cells at 4 C
# [9] = biological target: low density lipoprotein receptor-related protein (LRP) on rat MH1C1 hepatoma cells (rat); assay: saturation binding of 125I-ligand to MH1C1 cells at 4 C, Scatchard analysis (one experiment, FIG. 1A)
# [10] = biological target: low density lipoprotein receptor-related protein (LRP) on rat MH1C1 hepatoma cells (rat)
# [11] = biological target: T1, low density lipoprotein receptor-related protein (LRP) on human hepatoma HepG2 cells (human, UniProt Q07954); assay: saturation binding to HepG2 cells at 4 C, Scatchard; five experiments
# Procedure: (§1) Cells were seeded into multiwell (12 wells/plate) disposable plastic tissue culture plates 2 days prior to assay. Ligand binding buffer for t-PA was composed of phosphate-buffered saline (PBS) supplemented with 0.2 mM CaCl_2 and 10 mM EACA, whereas PBSc (PBS containing 1 mM CaCl_2 and 0.5 mM MgCl_2) was used for 39 kDa protein binding. Binding experiments were performed at 4° C. to prevent possible concomitant internalization during the binding interval. Cell monolayers were washed three times on ice with prechilled binding buffer. Binding was initiated by adding 0.5 ml binding buffer containing selected concentrations of ^125I-labelled ligand in the absence or presence of an excess unlabelled ligand (1 μM). After incubation at 4° C. for 1.5 hours, buffer containing unbound ligand was removed. Cells were then washed three times with binding buffer and lysed in 0.0625M Tris-HCl, pH 6.8, containing 0.2% (w/v) SDS and 10% (v/v) glycerol ("low-SDS lysis buffer"). Radioactivity of cell lysates was quantified by γ scintillation spectrometry. For some experiments, cell lysates were further analyzed by SDS-PAGE and autoradiography as described below. Total binding was determined in the presence of ^125I-labelled ligand alone. Nonspecific binding was determined in the presence of excess unlabelled ligand. Specific ligand binding was defined as the difference between total and nonspecific binding. […]
# [12] = biological target: low density lipoprotein receptor-related protein (LRP) on rat MH1C1 hepatoma cells (rat); assay: competition of 4 nM 125I-t-PA binding to MH1C1 cells, protein eluted from PVDF
# [13] = biological target: low density lipoprotein receptor-related protein (LRP) on rat MH1C1 hepatoma cells (rat); assay: saturation binding to untreated MH1C1 cells, Scatchard; n=3
# [14] = biological target: T1, low density lipoprotein …; assay: saturation binding to HepG2 cells at 4 C, Scatchard; one experiment
# Procedure: as §1
# [15] = biological target: low density lipoprotein receptor-related protein (LRP) on rat MH1C1 hepatoma cells (rat); assay: saturation binding to MH1C1 cells, Scatchard; summary of 10 experiments
# [16] = biological target: low density lipoprotein receptor-related protein (LRP) on human hepatoma HepG2 cells (human) (UniProt Q07954)
# [17] = biological target: low density lipoprotein receptor-related protein (LRP) on human hepatoma HepG2 cells (human) (UniProt Q07954); remark: listed apart in the source
molecule,measurement,setting,value
tissue-type plasminogen activator (t-PA) (from UniProt P00750) (enzyme),Kd,[1],4.9 nM
same,Kd,[2],5.6 nM
same,Ki,[3],8 nM
same,Kd,[4],9.1 nM
rat 39 kDa protein (from UniProt Q99068) (ligand),Ki,[5],0.5 nM
B1,IC50,[6],4 nM
same,concentration at 90% inhibition,[6],16 nM
B2,percent inhibition at 16 nM,[7],10%
B3,IC50,[8],< 1 nM
same,Kd,[9],3.2 nM
same,rate of ligand uptake and degradation at 37° C. (fmol/10^6 cells/minute),[10],52
same,Kd,[11],5.1 nM
same,Kd,[2],3.5 nM
same,IC50,[12],1 nM
same,concentration at 90% inhibition,[12],8 to 10 nM
same,Kd,[13],2.7 nM
same,Kd,[14],4.9 nM
same,Kd,[15],3.3 nM
same,specific degradation of ^125 I-t-PA by HepG2 cells (TCA-soluble radioactivity),[16],75%
same,specific ^125 I-t-PA uptake by HepG2 cells (cell-associated radioactivity),[17],70%
